The subject of the data set is MS2 coat protein. Put plainly: apparent KD of MS2 coat protein; designed switch direction (-1 OFF switch, 1 ON switch): -1; higher = weaker reporter binding. The method, boiled down:
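Designed RNA switches sharing common flanks were transcribed on Illumina chips by stalled E. coli RNA polymerase. They were titrated with SNAP-549-labelled MS2 coat protein, from 0.7 or 1.5 nM doubling to 3 µM, in Tris-HCl pH 7.5 buffer with KCl, MgCl2, BSA, DTT, tRNA and Tween-20. Titrations ran without input, with 200 uM small-molecule ligand, or with an oligonucleotide input. The apparent KD of each design is the median over its clusters, after curve-fitting of normalised cluster fluorescence.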

[1] abbreviates: Eterna round: R95, input ligand: FMN 200 uM.
Where [2] appears, read: Eterna round: R95, input ligand: microRNA oligo, concentration not stated.
Where [3] appears, read: Eterna round: R95, input ligand: none.
Setting [4] is: input ligand: microRNA oligo, concentration not stated.

Consider “CUAGAGUCAGGAUAUACGAGAUCGAAAGAUCGGCGAUCCCUACAUGAGGAUCACCCAUGUAGAAGGGACUCUAG [Mod 11 - Jieux - Exclusion 2] (Eterna round: R97, puzzle: Exclusion 2)”, for which the “apparent KD of MS2 coat protein” value (input ligand: FMN 200 uM) worked out at 28.3 nM and the “apparent KD of MS2 coat protein” value (input ligand: none) was 13.8 nM.
Consider “CUAGAUCUUCGGAUCUAGUACAUGAGGAUCACCCAUGUUACGAGCAGAUUUUCAUACAAGCUUUUUGCUCGUCUUAU [Sensor v3 - Turn-off variant 1 - 32] (puzzle: Sensor v3, turn-off variant 1)”, for which the “apparent KD of MS2 coat protein” value is, setting by setting: under setting [1], 24.7 nM; under setting [2], 72.4 nM; under setting [3], 27.3 nM.
Regarding “CUAGCAAUUGUAGGAUAUCGAUGUGUUUCACAUCGAGAAGGACAUGAGGAUCACCCAUGUGAAAGGAUCGUGAGAUCCAGCUAG [JL ENG1 3.75] (Eterna round: R96, puzzle: Exclusion NG 1)”, the “apparent KD of MS2 coat protein” value (input ligand: FMN 200 uM) turned out to be 96.7 nM, the “apparent KD of MS2 coat protein” value under setting [4] is 23.1 nM and the “apparent KD of MS2 coat protein” value (input ligand: none) is 30.3 nM.
On the same counts, the results for “CUAGCUAUUGUAGGAUAUCGAUGUGUUUCACAUCGAGAAGGACAUGAGGAUCACCCAUGUGAAAGGAUCGUGAGAUCCAGCUAG [JL ENG1 3.76] (Eterna round: R96, puzzle: Exclusion NG 1)” are 81.9 nM, 18.7 nM and 23.5 nM.
Take “CUAGUAUAUCAGGAUAUGAUAUUGUGUAGUAAAUCAGAAGGGAUGACAUGAGGAUCACCCAUGUUAAGGGAUGA [JR_Ex6_Sub047] (Eterna round: R97, puzzle: Exclusion 6)”: the “apparent KD of MS2 coat protein” value (input ligand: FMN 200 uM) amounted to 41.4 nM and the “apparent KD of MS2 coat protein” value (input ligand: none) came out at 54.3 nM.
For “CUAGUAUAUCAGGAUAUGAUUUUAUAUAGUGGAUCAGAAGGGAUAACAUGAGGAUCACCCAUGUUAAGGAGUGA [JR_Ex6_Sub041] (Eterna round: R97, puzzle: Exclusion 6)” the same measures were 129 nM and 49.9 nM.
“CUAUCCAGAGGAUAUACGAGAUCGAAAGAUCGGCGAUCCCUACAUGAGGAUCACCCAUGUAGAAGGCUGGAUAG [Mod 17 - Jieux - Exclusion 2] (Eterna round: R97, puzzle: Exclusion 2)”: the “apparent KD of MS2 coat protein” value is, setting by setting: (input ligand: FMN 200 uM) 83.8 nM; (input ligand: none) 19.7 nM.
As for “CUAUUACGAGGAUAUGAUUUAAAUAACAUGAGGAUCACCCAUGUUUUUACGUUAUUAUGUUUAGAAGGCGUAUUGU [JR_E5_Sub026] (puzzle: Exclusion 5)”, the “apparent KD of MS2 coat protein” value under setting [2] is 43.4 nM.
On the same count and under the same terms, in the case of “CUAUUGCGAGGAUAUGAUUUAAAUAACAUGAGGAUCACCCAUGUUUUUACGUUGUUAUGUUCAGAAGGCGUAUUGU [JR_E5_Sub024] (puzzle: Exclusion 5)” it was 41.4 nM; in that of “CUCAUGUGAGGAUAUAGUACUUCUUCUAUUAUUAUUGAGUACUAGAAGGCACAUGAGGAUCACCCAUGUAGUAC [Ex4 - 3 - 44] (puzzle: Exclusion 4)”, 23.8 nM.
With “CUCCUCAUGGCGCCUAAACACAUGAGGAUCACCCAUGUACAGGCUUUUUGCCGUCUUAUAAUAAAACCGAGGAUACG [Raaen] (puzzle: Sensor v3, turn-off variant 1)”, the “apparent KD of MS2 coat protein” value came to 76.3 nM under setting [1], 167 nM under setting [2] and 149 nM under setting [3].
Regarding “CUCGGACAUGAGGAUCACCCAUGUGAGGAUAUGAUGCGAUCGUCGAAAGACGAUAGCAUCAGAAGGCACAAAUG [Fiskers Ex 1 - 25] (puzzle: Exclusion 1)”, the “apparent KD of MS2 coat protein” value under setting [2] came out at 73 nM.
Take “CUCGGACAUGAGGAUCACCCAUGUGAGGAUAUGGCGCGAUCGUCGAAAGACGAUAGCGCCAGAAGGCACAAAUG [LRO-Excl1-26] (puzzle: Exclusion 1)”: the “apparent KD of MS2 coat protein” value under setting [2] turned out to be 52 nM.
“CUCGUAUUAUACAUGAGGAUCACCCAUGUGGUCACCACUCACGAGGAUAUCCCGGGAAACCGAACGGAGAAGGUGUAGAGUCAU [Eternabot solution 44] (Eterna round: R96, puzzle: Exclusion NG 3)”: the “apparent KD of MS2 coat protein” value is, setting by setting: (input ligand: FMN 200 uM) 164 nM; under setting [4], 163 nM; (input ligand: none) 196 nM.
Turning to “CUCUAGUCAGGAUAUUAGUUGCCGCCUGGCAACAGGCGGCAUGAGAAGGGACUUGAGGAUCACCCAAGUAAAAG [Rabebete] (Eterna round: R97, puzzle: Exclusion 4)”, the “apparent KD of MS2 coat protein” value reads like this: (input ligand: FMN 200 uM) 66.1 nM; (input ligand: none) 368 nM.
Take “CUCUGACAUGAGGAUCACCCAUGUGAGGAUAUGAUGCAGCAGUGGUCUACGCUGUGCAUCAGAAGGCACAUGUG (puzzle: Exclusion 1)”: under setting [2], the “apparent KD of MS2 coat protein” value came to 124 nM.
“CUCUUACAUGAGGAUCACCCAUGUGAGGAUAUGCCCGGAGUAGCAGCAGAUCCUCUGGGCAGAAGGCACGUAGG [Eternabot (L1) Solution 98] (Eterna round: R97, puzzle: Exclusion 1)”: the “apparent KD of MS2 coat protein” value (input ligand: FMN 200 uM) stood at 144 nM and the “apparent KD of MS2 coat protein” value (input ligand: none) stood at 123 nM.
In the case of “CUCUUGUCAGGAUAUCUAAGCCACCUCCGGGCGGCCGAAUUAGAGAAGGGACAUGAGGAUCACCCAUGUAAAAG [Qumabi] (puzzle: Exclusion 4)”, the “apparent KD of MS2 coat protein” value is, setting by setting: under setting [1], 30 nM; under setting [2], 138 nM; under setting [3], 174 nM.

The record behind these values is the supplement of paper PMC9170038.
